# Patent publication US8143228B2, “Agents capable of downregulating an MSF-A dependent HIF-1α and use thereof in cancer treatment” (Medical Research Fund of Tel Aviv Sourasky Medical Center, priority 2004, dated 2012)
# B1: MSF-A: myeloid/lymphoid leukemia septin-like fusion protein A (SEQ ID NO:3), over-expressed from the p3xFlag-MSF-A vector (protein, listed as Homo sapiens)
# chain: MKKSYSGGTRTSSGRLRRLGDSSGPALKRSFEVEEVETPNSTPPRRVQTPLLRATVASSTQKFQDLGVKNSEPSARHVDSLSQRSPKASLRRVELSGPKAAEPVSRRTELSIDISSKQVENAGAIGPSRFGLKRAEVLGHKTPEPAPRRTEITIVKPQESAHRRMEPPASKVPEVPTAPATDAAPKRVEIQMPKPAEAPTAPSPAQTLENSEPAPVSQLQSRLEPKPQPPVAEATPRSQEATEAAPSCVGDMADTPRDAGLKQAPASRNEKAPVDFGYVGIDSILEQMRRKAMKQGFEFNIMVVGQSGLGKSTLINTLFKSKISRKSVQPTSEERIPKTIEIKSITHDIEEKGVRMKLTVIDTPGFGDHINNENCWQPIMKFINDQYEKYLQEEVNINRKKRIPDTRVHCCLYFIPATGHSLRPLDIEFMKRLSKVVNIVPVIAKADTLTLEERVHFKQRITADLLSNGIDVYPQKEFDEDSEDRLVNEKFREMIPFAVVGSDHEYQVNGKRILGRKTKWGTIEVENTTHCEFAYLRDLLIRTHMQNIKDITSSIHFEAYRVKRLNEGSSAMANGVEEKEPEAPEM
# modifications: 3xFlag tag
# Experiments:
# Assay type in all cases: cell-based
# [1] = test system: PC-3 cells; test: Soft agar foci assay; conditions: PC-3-MSF-A vs PC-3-Neo cells, 4 weeks, normoxia
# Description: FIGS. 14a-g are microscopic photographs (FIGS. 14a-f) and a graph depicting the effect of MSF-A over-expression on colony formation and growth (FIG. 14g). PC-3-Neo and PC-3-MSF-A cells were grown for 4 weeks in soft agar under normoxic conditions. Colonies were observed and counted. FIGS. 14a, c, and e—representative colonies from each plate seeded with PC-3-Neo cells; FIGS. 14b, d, and f—representative colonies from each plate seeded with PC-3-MSF-A cells; FIG. 14g—quantitative analysis of colony number from each cell type. Columns=means; bars=SD; n=3.
# Soft Agar Foci assay—The assay tests the anchorage-independent growth of the cell in soft agar. Suspensions of PC-3-Neo or PC-3-MSF-A cells in 0.22% soft agar were poured on 35 mm-diameter plate (5000 cells/plate) pre-cast with 0.5% soft agar and were cultured for 4 weeks. Colonies (≧20 cells) were counted.
# [2] = test system: PC-3 cells; test: Plating efficiency assay; conditions: PC-3-MSF-A cells; PC-3-Neo 16.8%, p<0.001
# Description: Plating Efficiency assay—PC-3-Neo and PC-3-MSF-A cells were cultured in 100 mm-diameter plate (1000 cells/plate) and incubated to allow colony formation. The cultures were monitored on a daily basis and when colonies were visible (approximately after 2 weeks) cells were fixed and stained with 90% EtOH, 5% Acetic acid, 0.01% Coomassie brilliant blue (Sigma-Aldrich, Saint Louis, Mo.). Plating was done in triplicates. Colonies containing ≧20 cells were counted. Plating efficiency (%) was calculated as number of colonies formed/number of cells plated×100.
# [3] = test system: HIF-1 transcriptional activity; test: HRE-dependent luciferase reporter gene assay in PC-3 cells; conditions: pooled PC-3-MSF-A vs PC-3-Neo cells
# Description: Reporter gene assay and luminescence measurements—HRE-dependent luciferase activity was performed using the pBI-GL construct (pBI-GL V6L) containing six tandem copies of the VEGF hypoxia response element as previously described (Mabjeesh et al., 2002; Post and Van Meir, 2001). Cells were grown in 6-well plates and then transiently transfected in triplicate with a total of 1 μg DNA including 0.1 μg of the reporter plasmid, pBI-GL V6L. Duplicate sets of transfected cell-culture plates were then separated and incubated for 16 hours under either normoxic or hypoxic conditions. Luciferase enzymatic activity was measured using the commercial kit TROPIX (Bedford, Mass.) in the Galaxy luminometer (BMG Labtechnologies LUMIstar) following the manufacturer's instructions. Arbitrary Luciferase activity units were normalized to the amount of protein in each assay point.
# To investigate the effect of MSF-A binding on HIF-1α function, the transcriptional activity of the HIF-1 complex was determined using a reporter gene assay as previously described (Mabjeesh N J et al. 2ME2 inhibits tumor growth and angiogenesis by disrupting microtubules and dysregulating HIF. Cancer Cell 2003; 3: 363-375). […]
molecule,measurement,setting,value
B1,colony formation in soft agar,[1],significantly more colonies
same,plating efficiency,[2],49.3%
same,"HIF-1 transcriptional activity (luciferase assay), stable transfectants",[3],significant increase
